Source: patent US8623997B2, “Variant Hhip1 protein and methods and uses thereof” (Curis, Inc., priority 2008, dated 2014)

Key:
[1] = target: T1, Shh649 binding to Hhip1β12 on 293 cells (Homo sapiens, UniProt Q15465); test: FACS: Ptch1-independent recruitment of Shh649 to 293 cells by Hhip1β12; settings: 520 nM
T1 construct: made in house; host or cells: Shh649: E. coli Rosetta 2; Hhip1β12: Tni insect cells; both added to HEK-293 cells
Description: The critical residue for 5E1 binding, S177 shown marked with an asterisk (*), resides in the area of Shh that interacts with both Hhip and Ptch1. Numbering refers to human Shh (Fuse, N. et al. (1999) Proc. Natl. Acad. Sci. USA 96:10992-10999; Pepinsky R. B. et al. (2000) J. Biol. Chem. 275:10995-11001). […] Black bars show binding to Ptch1 cells for comparison. Data are the average mean fluorescence intensity and SDs of two independent (duplicate and triplicate) experiments normalized to Shh649 binding to Ptch1 cells in the absence of other proteins (“Ctrl”) in the same way as FIG. 15J. Shh649 and Hhip1β12 are present at 45- and 10-fold higher concentrations respectively than in FIG. 15J in order to detect the Ptch1-independent binding of Shh649 to Hhip1β12.
Shh649, conjugated to Dylight 649 (Pierce) at its C-terminus (vide supra), was incubated at 0.33 or 1 nM for 1 h on ice with various Hhip or control proteins prior to incubation with HEK-293 cells (293) or 293 cells expressing full length human Patched-1 (Ptch1-293 clone 10) (Carpenter D. et al. (1998) Proc. Natl. Acad. Sci. USA 95:13630-13634) in FACS buffer (3% FBS in PBS) for 1 h on ice. After washing 3 times in FACS buffer, live cells (sorted by propidium iodide exclusion) were analyzed by flow cytometry in the APC channel using a FACSCalibur (BD Biosciences). […]

Shh signaling = test: Gli-luciferase co-culture signaling assay (S12 fibroblasts overlaid with Shh-producing HT29 cells); format: cell-based, murine S12 fibroblasts / human HT29 cells; settings: for IC50: 24 hrs, read-out: IC50 inhibition of Shh signaling
Description: Due to the lack of both N- and C-terminal lipid modifications of Shh and the absence of other cellular components, the in vitro assays may not fully recapitulate Hip-Shh interactions occurring in a cellular environment. Therefore, a co-culture assay consisting of murine S12 fibroblasts stably transfected with a Gli luciferase reporter gene and (Frank-Kamenetsky et al. (2002) J. Biol. 1:10) and human colorectal adenocarcinoma HT29 cells that secrete fully lipid-modified Shh (Yauch et al. (2008) Nature 455:406) was used to determine which extracellular domains of Hhip1β12 mediate inhibition of Shh signaling in mammalian cells.
Briefly, S12 cells, which are 10T1/2 fibroblasts stably transfected with 8× Gli-binding sites fused to a luciferase reporter (Frank-Kamenetsky et al. (2002) J. Biol. 1:10), were plated at 10,000 cells/well of a white-walled clear bottomed 96-well plate (Costar 3610) for […] in regular growth medium (HG-DMEM, 10% FBS, 1% glutamine). After 24 h, the media was removed and Shh-producing HT29 cells at 20,000 cells/well were plated and the co-culture was grown in regular media. After 24 h, the media was changed to 0.5% serum HG-DMEM±Hhip1β12 fragments and further incubated for 24 hrs to stimulate signaling. Gli-luciferase activity was measured using a HTS-Steady Lite luciferase detection kit (Perkin Elmer); multiple assays were carried out, each in triplicate. Data were fit to a 4-parameter sigmoidal equation, from which the IC50 was derived using Kaleidagraph (Synergy Software).

Ptch1 = test: FACS assay of Shh649 binding to Ptch1 expressing 293 cells and its competition; set-up: species or system human
Procedure: Shh649 (1 nM) preincubated with indicated proteins was bound to Ptch1 expressing cells, washed and analyzed by FACS. The average mean Shh649 fluorescence intensity (MFI) of two independent dilution series was plotted versus inhibitor concentration, with error bars denoting standard deviations. […] Assays were carried out using octylated Ihh wildtype and T154I proteins. Concentration dependent relative luciferase units (RLU) are plotted as the average of four independent dilution series±standard deviation and normalized to the maximal Ihh WT stimulation on each plate as 100%. […] The data is representative of three independent experiments.
Shh is in the same orientation as in the Hhip-Shh complex in Panel A. Zn^2+ and Ca^2+ cations are shown. […] Surface representation of Shh with residues within 4.5 Å of Hhip (shaded gray) and Cdon (hatched areas). Area within dotted boarder indicates the boundaries of the Cdon footprint, which overlaps the Hhip binding surface. […] Shh histidine residues are shown as sticks with nitrogen atoms shaded dark. The Hhip L2 loop is shown in transparent surface and Zn^2+ cation is shown. Histidine 35 is not shown since the ordered portion of the Shh structure begins at L40. […] The spectral region of the histidine side chains is shown. […] The average mean Shh649 fluorescence intensity (MFI) of two independent dilution series was plotted versus protein concentration, with error bars denoting standard deviations. Ctrl refers to the His-6 (SEQ ID NO: 87) tagged HGF β protein. […] Shh649 (0.33 nM) was preincubated with 56 nM (170-fold excess) of Hhipβ12 wildtype or L2 mutant proteins, 5E1 or controls then bound to Ptch1 cells (black) or 293 cells (gray), washed and analyzed by FACS. Shh649 binding to Ptch1 cells in the absence of inhibitors was normalized to 100% and the data expressed as a percentage of this signal (average of two independent duplicates with standard deviations). Ctrl and CtrlFc refer to HGF β and the IgG1 isotype control Trastuzumab, respectively. The data is representative of at least three independent experiments.
Shh649, conjugated to Dylight 649 (Pierce) at its C-terminus (vide supra), was incubated at 0.33 or 1 nM for 1 h on ice with various Hhip or control proteins prior to incubation with HEK-293 cells (293) or 293 cells expressing full length human Patched-1 (Ptch1-293 clone 10) (Carpenter D. et al. (1998) Proc. Natl. Acad. Sci. USA 95:13630-13634) in FACS buffer (3% FBS in PBS) for 1 h on ice. After washing 3 times in FACS buffer, live cells (sorted by propidium iodide exclusion) were analyzed by flow cytometry in the APC channel using a FACSCalibur (BD Biosciences). Control proteins included His6-Shh, His6-Ihh, HGF β-His639, Trastuzumab (Genentech, Inc.) as a human IgG1 isotype control for Hhip1β12-Fc, and mIgG1 (Molecular Probes Z25105) as a murine Mab control for anti-Shh 5E1 Mab34.

biotinylated-ShhN-Cys = target: T2, biotinylated-ShhN-Cys (Homo sapiens, UniProt Q15465); test: Bio-layer interferometry (Octet) binding kinetics of Hhip1β12 variants to Shh
T2 construct: ShhN-Cys (residues 24-197); His6 (N); made in house; host or cells: E. coli Rosetta 2
Procedure: The binding kinetics of the Hhip1β12 fragments as well as Hhip1β12 mutants were measured by bio-layer interferometry in the presence or absence of 10 mM EDTA on an Octet (Fortébio). Streptavidin high binding FA biosensors were loaded with biotinylated-ShhN-Cys in kinetic buffer (Fortébio). The loaded biosensors were washed and transferred to wells containing Hhip1β12 protein at concentrations of 1.2, 1.0, 0.8 and 0.6 μM in kinetic buffer. Hhip1β12 association and dissociation was measured for 30 and 20 min, respectively. Kinetic parameters (kon and koff) and affinities (KD) were calculated from a non-linear fit of the data based on a 1:1 binding model between Hhip1β12 and Shh using the Octet software. Multiple independent measurements were performed.
In order to assess the contribution of residues in the Hhip1 L1, L2 and L3 loops for binding to Shh, a series of single alanine Hipβ12 mutants were made using the QuickChange DNA mutagenesis kit (Stratagene) using the manufacturer's protocol, and their affinity for Shh was measured by bio-layer interferometry (as described in Example 2B). These mutations included Hhip1β12 mutants 1312A, E381A, M382A, D383A, D378A, T418A, Q420A, E380A, D387A and ΔL2.

[2] = 1:1 binding model, n.d stands for no binding detected

Molecule	binding to 293 cells at high concentrations [1]	IC50 (Shh signaling; Gli-luciferase co-culture)	competition of Shh649 binding to Ptch1 cells (in words) (Ptch1)	Kd (biotinylated-ShhN-Cys; [2])	koff × 10^−4 (biotinylated-ShhN-Cys; [2])	kon × 10^3 (biotinylated-ShhN-Cys; [2])	IC50 fold change versus wildtype Hipβ12 (Shh signaling; Gli-luciferase co-culture)	maximal inhibition (Shh signaling; at saturating conditions)	Shh binding of Hhip1β12 mutants (in words) (biotinylated-ShhN-Cys; bio-layer interferometry, compared with WT Hhip1β12)
Hhip1β12: β-propeller-EGF1-EGF2 construct (SEQ ID NO:12), residues 193-667 of SEQ ID NO:2, lacking putative Fz domain (protein, listed as Homo sapiens) SNYLDQMEEYDKVEEISRKHKHNCFCIQEVVSGLRQPVGALHSGDGSQRLFILEKEGYVKILTPEGEIFKEPYLDIHKLVQSGIKGGDERGLLSLAFHPNYKKNGKLYVSYTTNQERWAIGPHDHILRVVEYTVSRKNPHQVDLRTARVFLEVAELHRKHLGGQLLFGPDGFLYIILGDGMITLDDMEEMDGLSDFTGSVLRLDVDTDMCNVPYSIPRSNPHFNSTNQPPEVFAHGLHDPGRCAVDRHPTDININLTILCSDSNGKNRSSARILQIIKGKDYESEPSLLEFKPFSNGPLVGGFVYRGCQSERLYGSYVFGDRNGNFLTLQQSPVTKQWQEKPLCLGTSGSCRGYFSGHILGFGEDELGEVYILSSSKSMTQTHNGKLYKIVDPKRPLMPEECRATVQPAQTLTSECSRLCRNGYCTPTGKCCCSPGWEGDFCRTAKCEPACRHGGVCVRPNKCLCKKGYLGPQCE	bind nonspecifically to 293 cells	5 nM	inhibit Ptch1-specific Shh cell binding in a dose-dependent manner	220 nM	9.4 × 10^−4 [s^−1]	4.3 × 10^3 [M^−1 × s^−1]			
Hhip1β12-Fc: Fc-tagged Hhip1β12 (protein, left off: a dimerising Fc or GST) SNYLDQMEEYDKVEEISRKHKHNCFCIQEVVSGLRQPVGALHSGDGSQRLFILEKEGYVKILTPEGEIFKEPYLDIHKLVQSGIKGGDERGLLSLAFHPNYKKNGKLYVSYTTNQERWAIGPHDHILRVVEYTVSRKNPHQVDLRTARVFLEVAELHRKHLGGQLLFGPDGFLYIILGDGMITLDDMEEMDGLSDFTGSVLRLDVDTDMCNVPYSIPRSNPHFNSTNQPPEVFAHGLHDPGRCAVDRHPTDININLTILCSDSNGKNRSSARILQIIKGKDYESEPSLLEFKPFSNGPLVGGFVYRGCQSERLYGSYVFGDRNGNFLTLQQSPVTKQWQEKPLCLGTSGSCRGYFSGHILGFGEDELGEVYILSSSKSMTQTHNGKLYKIVDPKRPLMPEECRATVQPAQTLTSECSRLCRNGYCTPTGKCCCSPGWEGDFCRTAKCEPACRHGGVCVRPNKCLCKKGYLGPQCE	bind nonspecifically to 293 cells		inhibit Ptch1-specific Shh cell binding in a dose-dependent manner						
D383R: Hhip L2 mutant of Hhip1β12 with D383 changed to R (protein) MLKMLSFKLLLLAVALGFFEGDAKFGERNEGSGARRRRCLNGNPPKRLKRRDRRMMSQLELLSGGEMLCGGFYPRLSCCLRSDSPGLGRLENKIFSVTNNTECGKLLEEIKCALCSPHSQSLFHSPEREVLERDLVLPLLCKDYCKEFFYTCRGHIPGFLQTTADEFCFYYARKDGGLCFPDFPRKQVRGPASNYLDQMEEYDKVEEISRKHKHNCFCIQEVVSGLRQPVGALHSGDGSQRLFILEKEGYVKILTPEGEIFKEPYLDIHKLVQSGIKGGDERGLLSLAFHPNYKKNGKLYVSYTTNQERWAIGPHDHILRVVEYTVSRKNPHQVDLRTARVFLEVAELHRKHLGGQLLFGPDGFLYIILGDGMITLDDMEEMRGLSDFTGSVLRLDVDTDMCNVPYSIPRSNPHFNSTNQPPEVFAHGLHDPGRCAVDRHPTDININLTILCSDSNGKNRSSARILQIIKGKDYESEPSLLEFKPFSNGPLVGGFVYRGCQSERLYGSYVFGDRNGNFLTLQQSPVTKQWQEKPLCLGTSGSCRGYFSGHILGFGEDELGEVYILSSSKSMTQTHNGKLYKIVDPKRPLMPEECRATVQPAQTLTSECSRLCRNGYCTPTGKCCCSPGWEGDFCRTAKCEPACRHGGVCVRPNKCLCKKGYLGPQCEQVDRNIRRVTRAGILDQIIDMTSYLLDLTSYIV		57 nM	no inhibition				~13 fold	~50%	inability
